Tests used:
[1] = molecular target: T1, nrgECD (amino acids Ser2-Lys246 of neuregulin beta 1) (Homo sapiens, UniProt Q02297); test: Biacore binding to nrgECD; details: immobilized nrgECD
T1 construct: Ser2-Lys246 of neuregulin beta 1; purchased R&D Sciences or SinoBiologicals
T1 sequence (Q02297 2-246 isoform Q02297-6): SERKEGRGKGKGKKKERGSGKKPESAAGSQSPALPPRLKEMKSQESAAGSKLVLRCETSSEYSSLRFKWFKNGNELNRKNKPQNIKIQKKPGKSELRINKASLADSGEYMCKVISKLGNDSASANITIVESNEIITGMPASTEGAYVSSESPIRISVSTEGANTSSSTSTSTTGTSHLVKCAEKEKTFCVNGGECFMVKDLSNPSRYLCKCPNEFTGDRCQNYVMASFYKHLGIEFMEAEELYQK
Protocol: (§1) Biacore binding was performed at David Myszka's laboratory at the University of Utah or at the Genomic Research Center at Academia Sinica. Surfaces of binding protein chimera were made via chemical immobilization on a CM4 chip using standard amine coupling chemistry. […] Excess surface carboxyl activated sites on all four flow cells was blocked using the doubly positively charged species ethylenediamine. Binding experiments (but not immobilizations) in HBS-P (10 mM HEPES pH 7.4, 150 mM NaCl, 0.05% P20), The HBS-P was supplemented with BSA at 0.2 mg/mL, or HBS-P was supplemented with 500 mM NaCl (650 mM NaCl, final concentration). Analytes were also reconstituted in the corresponding buffer. All experiments were performed at 25° C. 1/150 dilutions of phosphoric acid were used to regenerate IGFBP3-Fc surfaces and a sequence of 3 M MgCl2 followed by 5 M GuCl was used to regenerate surfaces immobilized with growth factor. Dissociation constants reported below used immobilized binding protein unless noted. Differences between binding constants may be expected between growth factor immobilization and chimera immobilization.
(§2) In this example, erbB4 domain 1 was attached to the N-terminus of the recombinant IGFBP3-Fc or the recombinant IGFBP3-v1v2-Fc.

[2] = molecular target: T2, nrgEGF (amino acids Thr176-Lys246 of neuregulin-beta 1) (Homo sapiens, UniProt Q02297); test: Biacore binding to nrgEGF
T2 construct: Thr176-Lys246 of neuregulin-beta 1; purchased R&D Sciences or SinoBiologicals
T2 sequence (Q02297 176-246 isoform Q02297-6): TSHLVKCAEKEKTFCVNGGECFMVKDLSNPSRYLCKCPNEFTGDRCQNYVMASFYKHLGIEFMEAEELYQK
Protocol: as §1, §2

## 56662: IGFBP3-Fc, SEQ ID NO: 7; unmodified IGFBP3 fused with the IgG Fc portion [compound 56662]
[1]
  Kd: 5.3 nM
[2]
  Kd nrgEGF: No binding

Source: patent US11254722B2, “Recombinant proteins and uses thereof” (ACADEMIA SINICA, priority 2017, dated 2022)
